Consider 20 sequences from the DeepSol protein solubility set.

The data set in a line: soluble on expression in E. coli; label from the status in PepcDB or PDB records.
With “MAHHHHHHMVELTEEEAMNFLNIALGEAEKSLQKELKEMPIFCLLINEEKKIISSSYNYTNESKNGSRHSELIAIDKYIYDGNYEQMKNLNLIKCYNNNENSIEKSIQDYFVSLDEKKNSELKINNYENINDKYMNEKYNKIQERINNLKKCCIVVTCEPCIMCVYALKLIGIKNIYFCCLNERFGGCGSVLSLHKKYEDINVHYIEHPECSEKSINLMKAFYKAGNPSAPEEKRKRPIS”, the “soluble on expression in E. coli” value is “not soluble”.

As to “MEFSMNATVEQLAPVEQQATTDWVVAALYQFKEVADAADLQQRLLDLVKTINLCGTLIVASEGINGTVAGDRHAIDTIREFLLNEGFHAMEYKESHSAEKPFRKMKIKLKQEIVTLGVEVKPRDLVGHYLDPKEWNELISRDDVILVDTRNDYEYKAGTFKGAIDPKTETFREFPDYVKQNLEQHKDKKIAMFCTGGIRCEKSTSLLLQEGFNEVYHLKGGILKYLEETPAEESLWEGECFVFDGRTAVTHGVEEGQNVKCHACGWPLTPEEVALPSYEHGVSCVYCIEKTTEKQKEGFRMRQSQIAAAKRKRLLEHHHHHH”, the “soluble on expression in E. coli” value was “soluble”.

With “MGHHHHHHMLENIRDAVRKFLTGSTPYEKAVDEFIKDLQKSLISSDVNVKLVFSLTAKIKERLNKEKPPSVLERKEWFISIVYDELSKLFGGDKEPNVNPTKLPFIIMLVGVQGSGKTTTAGKLAYFYKKRGYKVGLVAADVYRPAAYDQLLQLGNQIGVQVYGEPNNQNPIEIAKKGVDIFVKNKMDIIIVDTAGRHGYGEETKLLEEMKEMYDVLKPDDVILVIDASIGQKAYDLASRFHQASPIGSVIITKMDGTAKGGGALSAVVATGATIKFIGTGEKIDELETFNAKRFVSRILGMGDIESILEKVKGLEEYDKIQKKMEDVMEGKGKLTLRDVYAQIIALRKMGPLSKVLQHIPGLGIMLPTPSEDQLKIGEEKIRRWLAALNSMTYKELENPNIIDKSRMRRIAEGSGLEVEEVRELLEWYNNMNRLLKMVK”, the “soluble on expression in E. coli” value was “soluble”.

With “MNTDTFMCSSDEKQTRSPLSLYSEYQRMEIEFRAPHIMPTSHWHGQVEVNVPFDGDVEYLINNEKVNINQGHITLFWACTPHQLTDTGTCQSMAIFNLPMHLFLSWPLDKDLINHVTHGMVIKSLATQQLSPFEVRRWQQELNSPNEQIRQLAIDEIGLMLKRFSLSGWEPILVNKTSRTHKNSVSRHAQFYVSQMLGFIAENYDQALTINDVAEHVKLNANYAMGIFQRVMQLTMKQYITAMRINHVRALLSDTDKSILDIALTAGFRSSSRFYSTFGKYVGMSPQQYRKLSQQRRQTFPG”, the “soluble on expression in E. coli” value is recorded as “soluble”.

“MGSDKIHHHHHHMQAKTTLEQWEILQAVIDLGGYTQAANVLHRSQSSVSYQLSLLQERLGIELLTIHGRKAELTPEGENLLAQARSVIRSFHALEARAHSLKMGEQASINLVVDSTFPKDRLFHLLSTFQKQHPATRIHLTEVLRNETSAQLKARDADIYIITQREIDGCAGRWLMNVDFVAVAHSHHPLFSLPTPLSHEALSRYPCVEIVMRTPPHSQPASAESWTFTTFEAATQAVLHQVGYGWLPEARISEHITRGELHILPLQQGERRTTPLYLLAEEKGQPLGKEIIMLIELLFGRL”: the “soluble on expression in E. coli” value was “not soluble”.

Take “SAASKLQAFWNHPAGPKTIHFWAPTFKWGISIANVADFAKPPEMISYPQQVVVACSGVIWARWGMVITPINWNLSSVNAAMAVTGVCQLSRKIRHDYFSDEKSATASLEG”: the “soluble on expression in E. coli” value is listed as “soluble”.

In the case of “MGSDKIHHHHHHMILLVGGEKGGSGKSCLAQNIAVHISQKHDANVLMVDCDPQRTTSDWIQARNNDPSLKAINCIQLYGKIRNDLLSLNDRFDYVIVDCGGQDNLAMRAAMSVATYVVIPLRPKRRDLKTLPHMEDMLSTCKMVNPKMIAAIVITQCPALPSQGKRILEAKEVVESFGLRALNSVTFSRNIYDDSEESGSSVLEIDPSGKAADEIRAIADELFAIPPENSYEFN”, the “soluble on expression in E. coli” value was “not soluble”.

As for “MGSDKIHHHHHHMVNIEIDEGSGFCFGVTTAIRKAEEELAKGNTLYCLGDIVHNGQECERLKKMGLITINHEEFAQLHDAKVLLRAHGEPPETYAIARTNNIEIIDATCPVVLRLQKRIKQEYDNVPASQDTQIVIYGKNGHAEVLGLVGQTHGKAIVIETPAEAAHLDFTKDIRLYSQTTKSLEEFWQIIEYIKEHISPDATFEYYDTICRQVANRMPNIRKFAAAHDLIFFVCGRKSSNGKILYQECKKINPNSYLIDQPEEIDRNLLEDVRSIGICGATSTPKWLMEECKKAILNEK”, the “soluble on expression in E. coli” value is recorded as “not soluble”.

As for “MKPLSSQLNMKINDFYLPLLPVIGTGRLYITSKGHACHAYFREVSGHGIRFTLTYSGYEGRFWISEEQFIQWCQELFPYSESRLIPEDTIKLMILWVMQTALPEGDVSVDDVQFTMLNKDIYPVIENNNGENRLNVIILETTVQSLQYLINDNWQLVPHSNALFFDGYIVPGWTDYPVTELRVGDSLRLYHVDDSQERRCWIVINTPLATVNLSDNNLSVTDVLAADLLSALSNETVMNRIYCAIGTVHIDIHMLRNVKKDDIINSDGYHLFGGCQLIRNNTTIAYGSIVKINEDFYFTVSIVCD”, the “soluble on expression in E. coli” value is listed as “soluble”.

Consider “MAGDPMGNNNSTKESTHDNHSDSSTHEEMDHSGSADVPEGLQESKNPKYKVGSQVIINTSHMKGMKGAEATVTGAYDTTAYVVSYTPTNGGQRVDHHKWVIQEEIKDAGDKTLQPGDQVILEASHMKGMKGATAEIDSAEKTTVYMVDYTSTTSGEKVKNHKWVTEDELSAKLEHHHHHH”, for which the “soluble on expression in E. coli” value is reported as “soluble”.

As for “MATIKLKFRPSTVQGKAGTLCYQLCHRQENRQITTDMRIFPEWWNETKRELVAVPGNERVLTAYRKRAEKEMRDIREIIRELDCSGETYTLSEILNRYRSLPSEPGFLYYMKKEMETLWENGQYGTSRNYRRALNSFSAFLDGDDIPFSSLDSALACRYESWLWQQKVARNSSSFYMRILRAVYNKAVKQGLAVQTFPFREVYTGVARTSKRAVDEETIRKLQRLDLSGSPALALSRDMFVFSYCARGMAFVDMAYLKKEDVGGGRITYYRHKTGQYLTLRIEPCMVTILERYGRTCPESPYLFPILTDEQPELAYRQYRTGLNYHNRKLKRLGKLLGEPLPLSSYTPRHSWATAARNHDVPIAVISAGMGHSSERTTLIYLDSLDNAIIDNANEKILKGLNDTISM”, the “soluble on expression in E. coli” value is “not soluble”.

Consider “SEMIGGDDTDTEMYGALVTAQSLRLRHLHHCRENQCTSVLVKYIQAPVHLVWSLVRRFDQPQKYKPFISRCTVNGDPEIGCLREVNVKSGLPATTSTERLEQLDDEEHILGINIIGGDHRLKNYSSILTVHPEMIDGRSGTMVMESFVVDVPQGNTKDDTCYFVESLIKCNLKSLACVSERLAAQDITNSIATFCNASNGYREKNHTETNL”, for which the “soluble on expression in E. coli” value is given as “soluble”.

As to “MPPPLPYDAMRSVWTDTAAPAMATVPLAGHADCDVAIVGAGITGLSAALHLAERGLRACVLEARDPGWGASGRNGGQVIPGIKHDPDEILARHGRERGEPLLHMVGTAADTVFDLIDRYGLDCHPVRRGWIQPAHSRQALDAVLARARQWRARGADVAELDAGDVARRLGTGRFLGGWIDRRAGSIQPLRYTRGLLRAALSLGAAVHGQSPVVALQREGSRWLVRCAQGASVRAEHVLIATNAYTDDLWPGLRRTVIAANSFIVATGPLDPALAPAILPGGEVASDSRRLLLYFRRDADRRFILGGRGRFADPVSDADWNHLVRGARLLYPQLADTPFVHRWSGRVALTRDFVPHVHQPSPNLRIVLGYNGRGVALATQMGNYLAREISGGEPLPYPVTPIAPIPLHGLKRLYIGLAVAYYGLCDRISLEHHHHHH”, the “soluble on expression in E. coli” value is recorded as “not soluble”.

With “MSLRYIVVGASAAGISGAKTLRELDKDAEIILVSKDENVYSRCILHHYISGHRDIEALDFTDRDFFEKYNIEWKKGLEVKAIDDREHVIVLSNGESLKYDKILLATGASAFIPPVENLREAKNVVGLRNLEDAIKIKEEAEKVKNVVVLGAGLVGIDAIAGLAFKDLNVTLVEMGDRVLPIQLDKYASSKYEKRFEDAGVKLKLGVRAEKVLIDENKNPKALLINTGEEIPCELIIVATGVRSNVAFLKDSSIETDRFGLIINEKGETNARDVYGAGDITGRNPIWPTAVKEGIIAANNMVGNEIFMEDFFGSKNTMNFLGLTTMSLGVVNAPDDSYTEEIDISGENYKKIIHKDGKIYGAIIQGDLSYAGVLTQLIKEKIHVSKVKKPLFEIDYADFFNIKENLEYTYEGHHHHHH”, the “soluble on expression in E. coli” value was “soluble”.

With “SLYRIVLGKVSTLSAAPLPPGLREQAPQGPRRERWLAGRALLSHTLSPLPEIIYGEQGKPAFAPETPLWFNLSHSGDDIALLLSDEGEVGCDIEVIRPRANWRWLANAVFSLGEHAEMDAVHPDQQLEMFWRIWTRKEAIVKQRGGSAWQIVSVDSTYHSSLSVSHCQLENLSLAICTPTPFTLTADSVQWIDSVN”, the “soluble on expression in E. coli” value is recorded as “not soluble”.

“MGSDKIHHHHHHMTLKKLRANDRMKQIMAGYYMMGNQAEVKGWITSGAPVELLYAMDIYPVYPENHGALIGAAKQGPYFSDFAERKGFSRDLCSYARCDIGCVFAGTSPIGGLPEPTFLFACNNICNTVVKWYEVLSRIFKVPLFVLDTPFVRKELKESYVKYVHDQLYEFVDFLEKTTGRELSDSKLRDTVIKSIQGVKAYAEVLGMARHKPSPLTCFDAFINMAPIVCLRGTDYPVQFYAEMKEELEERVKRGEGAIENEEIRLLWDNIPVWYRLKWFSEFFAERNACLVADTYTNAWTGFISIDKSDIFWSMAETYTFIYLNIGLEHMAEAINRLIDYYDVDGAVIHSNRSCKPYSFGQYELQKMIEVPSVIIEADMVDSRTFSEAQVETRLEAFLEMLR”: the “soluble on expression in E. coli” value was “not soluble”.

For the sequence “MSSQPKLRILCLHGYRQCDQSFRQKTGSTRKLVKSLAEFEFVNGVHSVAVDEHVDSSRAWWFSNNEAMSFSSRESTEVAVGFEESVAAVVKFIEENGPFDGLLGFSQGASMVHLLIAKAQLGEIKLPGIRFAIFFSGFLSLSSKHDSLTLLRIKEFPSMHVFGDADEIVARPKSEKMADMFDVEPLRIAHDGGHVVPSMSKHKEKIAGFMREQLDRKIENN”, the “soluble on expression in E. coli” value is “not soluble”.

Consider “MGSDKIHHHHHHVSTAVSTPPTRLQCPICGSERFGDFRSRVNVRCSGCGSFERSRLLWLVLSQLELEATGRPFFHVAPEIGIAKLLHARLGERYRAFDFSPDIYAKAKIPVGRLDLCSDLSGMATGSVGGFCHVHVLEHVRCNAALVLQQINRVLAPGGYHVFGVPFWSRQYREDLSSELTDADRLSRFGHEDHVRSFGDQDFTVMFGGAFEGMEAIPLSRLIEVEAAARCNIPPRALTLNNSHSLFVYRKPIP”, for which the “soluble on expression in E. coli” value is listed as “not soluble”.

On to “KINDFSIKHGLTEKFVVSFAGTLGFSQDMEVIIRAANELKEYKDIVFIIVGNGVRLEESKKLAESLNLQNIRFIPSVPREIYPLVLHSSDVSLATLTKDVKTPVVPSKILSIMSAGIPVIAVMNLEGDAPKLVEKANAGFAIPAGDYKSLAEKILLLYKNPELRESLGRNGRRY”, for which the “soluble on expression in E. coli” value is given as “not soluble”.

Regarding “MSLSRPQFDPSAYAAQLEDKKSRLAGLLAPFAAPAPEVFESPREHYRLRAEFRLWRETGNEKRHYAMFEQGDKHTPILLEDFPIASRRINELMPRLKAAWADPALGFKLFQVEFLTTLAGDALITLCYHRPIDDAWRQAAEKLAAELGVNLVGRSRGKRIVVGRDYVEEELSVAGRRFRYRQPEGAFTQPNGEVNQKMLGWAYEALGQRDDDLLELYCGNGNFTLPLATRVRKVLATEISKSSVNAALANLADNAVDNVSLVRLSAEELTQALNEVRPFRRLADIDLKSYAFGSVFVDPPRAGMDPDTCELARRFERILYISCNPETLAQNIAQLHDTHRISRCALFDQFPYTHHMESGVLLEEGHHHHHH”, the “soluble on expression in E. coli” value is “soluble”.
